Numbering of substitutions follows the chain as printed.
Legend:
[1] = molecular target: T1, cMET on EGFR and cMET co-expressed tumor cell lines (UniProt P08581 25-1390, limits assumed); assay: flow cytometry, MKN-45 cells
T1 construct: whole, on cells

[2] = molecular target: T1, cMET on EGFR and cMET co-expressed …; assay: flow cytometry, EBC-1 cells (co-express EGFR and cMET; both arms contribute)
[3] = molecular target: T1, cMET on EGFR and cMET co-expressed …; assay: as above; remark: listed apart in the source
[4] = molecular target: T2, EGFR on EGFR and cMET co-expressed tumor cell lines (UniProt P00533 25-1210, limits assumed); assay: as above
T2 construct: whole, on cells

[5] = molecular target: T1, cMET on EGFR and cMET co-expressed …; assay: flow cytometry, SNU-5 cells (co-express EGFR and cMET; both arms contribute)
[6] = molecular target: T2, EGFR on EGFR and cMET co-expressed …; assay: as above
[7] = molecular target: T1, cMET on EGFR and cMET co-expressed …; assay: flow cytometry on CAL-27 cells (co-express EGFR and cMET), PE anti-human Fc; signal of the whole bispecific, not resolved by arm
[8] = molecular target: T2, EGFR on EGFR and cMET co-expressed …; assay: as above
[9] = molecular target: T1, cMET on EGFR and cMET co-expressed …; assay: flow cytometry on EBC-1 cells (co-express EGFR and cMET), PE anti-human Fc; signal of the whole bispecific, not resolved by arm
Description: (§1) EBC-1, ACHN and CAL-27 were cultured with DMEM medium (Gibco, Cat #C11995500BT) containing 10% FBS. […] Each antibody was incubated with different cell lines (1×10⁵ cells per well) for 30 mins in 0.2 mL FACS buffer (1×PBS with 0.1% BSA) at 4° C. After wash, cells were incubated with 100 μL PE-conjugated anti human Fc (Abcam, Ab98596, 1:500 dilution) for 30 mins at 4° C. After wash with PBS, cells were resuspended in FACS buffer and analyzed by flow cytometer (Beckman, CytoFLEX).

[10] = molecular target: T2, EGFR on EGFR and cMET co-expressed …; assay: as above
Description: as §1

[11] = molecular target: T1, cMET on EGFR and cMET co-expressed …; assay: flow cytometry on SNU-5 cells (co-express EGFR and cMET), PE anti-human Fc; signal of the whole bispecific, not resolved by arm
Description: as §1

[12] = molecular target: T2, EGFR on EGFR and cMET co-expressed …; assay: as above
Description: as §1

T1 sequence (P08581 25-1390 limits assumed): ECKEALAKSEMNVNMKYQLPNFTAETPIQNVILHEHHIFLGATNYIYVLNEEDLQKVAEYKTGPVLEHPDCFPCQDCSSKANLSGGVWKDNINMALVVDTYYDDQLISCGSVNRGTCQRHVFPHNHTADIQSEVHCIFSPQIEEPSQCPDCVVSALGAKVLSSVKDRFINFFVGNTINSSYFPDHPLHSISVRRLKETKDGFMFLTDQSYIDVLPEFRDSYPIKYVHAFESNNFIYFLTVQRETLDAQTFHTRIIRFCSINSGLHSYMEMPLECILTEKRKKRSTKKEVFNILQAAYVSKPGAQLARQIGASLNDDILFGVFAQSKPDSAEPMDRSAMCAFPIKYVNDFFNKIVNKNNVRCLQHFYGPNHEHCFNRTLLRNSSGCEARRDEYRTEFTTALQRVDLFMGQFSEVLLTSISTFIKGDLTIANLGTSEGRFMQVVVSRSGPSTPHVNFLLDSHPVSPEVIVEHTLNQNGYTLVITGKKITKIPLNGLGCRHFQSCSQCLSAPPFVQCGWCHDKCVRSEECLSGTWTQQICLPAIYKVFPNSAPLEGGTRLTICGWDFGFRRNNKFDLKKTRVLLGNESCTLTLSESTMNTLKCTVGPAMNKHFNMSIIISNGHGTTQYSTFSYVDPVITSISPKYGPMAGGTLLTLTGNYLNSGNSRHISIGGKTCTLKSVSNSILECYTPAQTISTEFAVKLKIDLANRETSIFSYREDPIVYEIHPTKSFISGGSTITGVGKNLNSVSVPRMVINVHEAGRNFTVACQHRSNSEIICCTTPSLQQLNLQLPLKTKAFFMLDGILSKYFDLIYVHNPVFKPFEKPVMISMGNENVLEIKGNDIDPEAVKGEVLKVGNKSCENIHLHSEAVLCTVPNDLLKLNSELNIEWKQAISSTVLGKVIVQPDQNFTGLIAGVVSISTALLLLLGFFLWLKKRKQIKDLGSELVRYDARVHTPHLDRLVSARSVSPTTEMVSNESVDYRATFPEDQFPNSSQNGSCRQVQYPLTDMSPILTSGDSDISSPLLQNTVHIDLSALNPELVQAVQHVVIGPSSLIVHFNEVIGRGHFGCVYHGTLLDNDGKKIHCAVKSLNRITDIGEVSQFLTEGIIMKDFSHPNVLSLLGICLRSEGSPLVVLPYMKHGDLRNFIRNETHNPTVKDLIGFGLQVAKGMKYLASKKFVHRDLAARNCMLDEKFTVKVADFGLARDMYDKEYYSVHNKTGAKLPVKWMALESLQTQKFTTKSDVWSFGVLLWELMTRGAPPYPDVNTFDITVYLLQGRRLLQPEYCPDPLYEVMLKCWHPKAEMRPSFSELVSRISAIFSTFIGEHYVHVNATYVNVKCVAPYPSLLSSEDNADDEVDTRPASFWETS

B1: Nova-5097 (antibody, V domains shown)
VH: QVQLVQSGAEVKKPGSSVKVSCKASGGTFSSYAISWVRQAPGQGLEWMGGIDPFGTANYAQKFQGRVTITADESTSTAYMELSSLRSEDTAVYYCARVYQDVWGQGTLVTVSS
VL: DIVMTQSPDSLAVSLGERATINCRSSQSILYGINNNFLGWYQQKPGQPPKLLIYWASTRESGVPDRFSGSGSGTDFTLTISSLQAEDVAVYYCQQYAFGWTFGQGTKVEIK
notes: Parent cMET mAb
binding result [1]: binds

B2: Nova-5098 (antibody, V domains shown)
VH: B1 VH
VL: DIVMTQSPDSLAVSLGERATINCRSSQSILYGINNNFLGWYQQKPGQPPKLLIYWASTRESGVPDRFSGSGSGTDFTLTISSLQAEDVAVYYCLQYSDEPWTFGQGTKVEIK
notes: Parent cMET mAb
binding result [1]: binds

B3: Nova-5185 (antibody, V domains shown)
VH: B1 VH with F54I, G55M, T56G, A57T, N58E
VL: B2 VL with L94Q, S97A, D98Y, W101N
notes: Parent cMET mAb
binding result [1]: binds

B4: Bsab 12 (bispecific antibody, human IgG1, kappa, L234A L235A)
chain 1: not shown
chain 2: DIQMTQSPSSLSASVGDRVTITCKSSQSLLYTSSQKNYLAWYQQKPGKAPKLLIYWASTRESGVPSRFSGSGSGTDFTLTISSLQPEDFATYYCQQYYAYPWTFGQGTKVEIKRTVAAPSVFIFPPSDEQLKSGTASVVCLLNNFYPREAKVQWKVDNALQSGNSQESVTEQDSKDSTYSLSSTLTLSKADYEKHKVYACEVTHQGLSSPVTKSFNRGECGGGGSGGGGSGGGGSGGGGSGGGGSGGGGSGGGGSGGGGSEVQLVESGGGLVQPGGSLRLSCAASGYTFTSYWLHWVRQAPGKGLEWVGMIDPSNSDTRFNPNFKDRFTISADTSKNTAYLQMNSLRAEDTAVYYCATYRSYVTPLDYWGQGTLVTVSSASTKGPSVFPLAPSSKSTSGGTAALGCLVKDYFPEPVTVSWNSGALTSGVHTFPAVLQSSGLYSLSSVVTVPSSSLGTQTYICNVNHKPSNTKVDKKVEPKSCDKTHTCPPCPAPEAAGGPSVFLFPPKPKDTLMISRTPEVTCVVVDVSHEDPEVKFNWYVDGVEVHNAKTKPREEQYNSTYRVVSVLTVLHQDWLNGKEYKCKVSNKALPAPIEKTISKAKGQPREPQVYTLPPCREEMTKNQVSLSCAVKGFYPSDIAVEWESNGQPENNYKTTPPVLDSDGSFFLVSKLTVDKSRWQQGNVFSCSVMHEALHNHYTQKSLSLSPGK
notes: 1+1 scFab knob-in-hole format; also called Basb 12
EC50 (read off the curve) [2]: ~2 nM

B5: AZD9592 (bispecific antibody, human IgG1, kappa, lambda)
anti EGFR heavy chain: QVQLVQSGAEVKKPGSSVKVSCKASGGTFSDNDFSWVRQAPGQGLEWMGAIVAVFRTETYAQKFQDRVKITADISTRTTYMELSSLRSEDTAVYYCARRLMSAISGPGAPLLMWGQGTLVTVSSASTKGPSVCPLAPSSKSTSGGTAALGCLVKDYFPEPVTVSWNSGALTSGVHTFPAVLQSSGLYSLSSVVTVPSSSLGTQTYICNVNHKPSNTKVDKRVEPKSVDKTHTCPPCPAPEFEGGPSVFLFPPKPKDTLMISRTPEVTCVVVDVSHEDPEVKFNWYVDGVEVHNAKTKPREEQYNSTYRVVSVLTVLHQDWLNGKEYKCKVSNKALPASIEKTISKAKGQPREPQVYTLPPCREEMTKNQVSLWCLVKGFYPSDIAVEWESNGQPENNYKTTPPVLDSDGSFFLYSKLTVDKSRWQQGNVFSCSVMHEALHNHYTQKSLSLSPGK
anti EGFR light chain: QSALTQPRSVSGSPGQSVTISCTGTSSDVGGYNYVSWYQQHPGKAPKLMIYDVSKRPSGVPDRFSGSKSGNTASLTISGLQAEDEADYYCSSYTSSDTLEIFGGGTKLTVLGQPKAAPSVTLFPPCSEELQANKATLVCLISDFYPGAVTVAWKADSSPVKAGVETTTPSKQSNNKYAASSYLSLTPEQWKSHRSYSCQVTHEGSTVEKTVAPTEVS
anti cMET heavy chain: QVQLVQSGAEVKKPGASVKVSCKASGYTFTDYYIHWVRQATGQGLEWMGWMNPNSGNTGYAQKFQGRVTMTRDTSISTAYMELSSLRSEDTAVYYCARGQGYTHSWGQGTMVTVSSASTKGPSVFPLAPSSKSTSGGTAALGCLVKDYFPEPVTVSWNSGALTSGVHTFPAVLQSSGLYSLSSVVTVPSSSLGTQTYICNVNHKPSNTKVDKRVEPKSCDKTHTCPPCPAPEFEGGPSVFLFPPKPKDTLMISRTPEVTCVVVDVSHEDPEVKFNWYVDGVEVHNAKTKPREEQYNSTYRVVSVLTVLHQDWLNGKEYKCKVSNKALPASIEKTISKAKGQPREPQVCTLPPSREEMTKNQVSLSCAVKGFYPSDIAVEWESNGQPENNYKTTPPVLDSDGSFFLVSKLTVDKSRWQQGNVFSCSVMHEALHNHYTQKSLSLSPGK
anti cMET light chain: DIQMTQSPSTLSASVGDRVTITCRASEGIYHWLAWYQQKPGKAPKLLIYKASSLASGVPSRFSGSGSGTEFTLTISSLQPDDFATYYCQQYSNYPPTFGGGTKLEIKRTVAAPSVFIFPPSDEQLKSGTASVVCLLNNFYPREAKVQWKVDNALQSGNSQESVTEQDSKDSTYSLSSTLTLSKADYEKHKVYACEVTHQGLSSPVTKSFNRGEC
EC50 (read off the curve) [3]: ~0.9 nM
EC50 (read off the curve) [4]: ~0.9 nM
EC50 (read off the curve) [5]: ~2 nM
EC50 (read off the curve) [6]: ~2 nM

B6: AZD9592-Ab (bispecific antibody, human IgG1, kappa, lambda)
anti-EGFR heavy chain: B5 anti EGFR heavy chain
anti-EGFR light chain: B5 anti EGFR light chain
anti-cMET heavy chain: B5 anti cMET heavy chain
anti-cMET light chain: B5 anti cMET light chain
notes: also called RAA22/B09-TM
EC50 (read off the curve) [7]: ~9 nM
EC50 (read off the curve) [8]: ~9 nM
EC50 (read off the curve) [9]: ~2 nM
EC50 (read off the curve) [10]: ~2 nM
EC50 (read off the curve) [11]: ~4 nM
EC50 (read off the curve) [12]: ~4 nM

B7: ABF-46 (antibody, V domains shown)
VH: EVKLVESGGGLVQPGGSLRLSCATSGFTFTDYYMSWVRQPPGKALEWLGFIRNKANGYTTEYSASVKGRFTISRDNSQSILYLQMDTLRAEDSATYYCARDNWFAYWGQGTLVTVSA
VL: DILMTQSPSSLTVSAGEKVTMSCKSSQSLLASGNQNNYLAWHQQKPGRSPKMLIIWASTRVSGVPDRFIGSGSGTDFTLTINSVQAEDLAVYYCQQSYSAPLTFGAGTKLELK
binding result [1]: binds
